Assay [1] addresses T1, monovalent hVISTA-ECD with polyhistidine tail (SEQ ID NO: 325) (human, UniProt Q9H7M9 33-193).
T1 construct: also called hVISTA-ECD 6-His tag; human VISTA
Nature of the assay: SPR, mAb captured on Protein A chip, hVISTA injected, PBST pH 6.0, 37 C.

The target of assay [2] is T1, monovalent hVISTA-ECD with …. Nature of the assay: SPR, mAb captured on Protein A chip, hVISTA injected, PBST pH 7.4, 37 C.
Assay [3] concerns the target T2, monovalent hVISTA-ECD (amino acids 32-193 of SEQ ID NO: 1 with a 7xHis tail) (human, UniProt Q9H7M9 33-193).
T2 construct: analyte of the SPR assays; also called huVISTA-His; human VISTA-ECD
Nature of the assay: SPR 37C, Ab on Protein A, hVISTA-ECD 50-5 nM, pH 6.0, average. As to the method: (§1) Binding of several preparations of each of the ‘029 progeny clones and of the parent ‘029 antibodies, formatted as IgG1.3 antibodies, to human VISTA at pH 6.0 and 7.4 was measured by Surface plasmon resonance (SPR). SPR analysis was performed to measure koff and KD binding affinity measurements for VISTA Abs at acidic and neutral pHs using a Biacore® T100 instrument (GE Healthcare). […] Antibodies were diluted to 25 nM in PBST pH 7.4, and were captured across active biosensor flow cells at 5 ul/min for 60 seconds. A concentration series of 50 - 5 nM monovalent hVISTA-ECD (SEQ ID NO: 325) was prepared in pH 7.4 and 6.0 running buffers, and was injected over the captured antibodies at 40 ul/min to measure association and dissociation. Two 15 second injections of 10 mM glycine pH 1.5 were used to regenerate the Protein A capture surface between assay cycles. Rate constants ka (kₒₙ) and kd (koff) were derived from reference flow cell and 0 nM blank-subtracted sensorgrams, and were fit to a 1:1 binding model in Biacore® T200 Evaluation Software v.2.0. The affinity constant, KD was calculated as the ratio of rate constants koff/kₒₙ for each VISTA antibody.

Assay [4] deals with T2, monovalent hVISTA-ECD (amino acids …). Nature of the assay: SPR 37C, Ab on Protein A, hVISTA-ECD 50-5 nM, pH 7.4, average. As to the method:
as §1

The target in assay [5] is T3, hVISTA-ECD 6-His tag (human, UniProt Q9H7M9 33-193).
T3 construct: also called monovalent hVISTA-ECD; human VISTA
T3 sequence (Q9H7M9 other isoform, or with tags, fused parts or gaps limits assumed): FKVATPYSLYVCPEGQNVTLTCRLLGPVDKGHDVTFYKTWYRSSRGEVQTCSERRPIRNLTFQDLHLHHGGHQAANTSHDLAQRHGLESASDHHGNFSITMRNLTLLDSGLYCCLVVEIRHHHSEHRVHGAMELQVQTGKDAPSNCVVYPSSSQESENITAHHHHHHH
Nature of the assay: SPR, Ab on Protein A, hVISTA analyte, pH 6.0.

The target in assay [6] is T3, hVISTA-ECD 6-His tag. Nature of the assay: SPR, Ab on Protein A, hVISTA analyte, pH 6.45.
The target in assay [7] is T3, hVISTA-ECD 6-His tag. Nature of the assay: SPR; KD at pH 6.45 over KD at pH 6.0 (head prints 7.4).
Assay [8] concerns the target T3, hVISTA-ECD 6-His tag. Nature of the assay: SPR; kd at pH 6.45 over kd at pH 6.0 (head prints 7.4). How it is done: Further binding kinetic experiments were performed at various pHs on VISTA antibodies described herein by SPR as generally described in Example 9 above. Antibodies were normalized to 50 nM concentration in PBST pH 7.4 and captured on a Protein A CM5 chip (ID 4931) by injecting for 45 seconds at a 5 µL/min flow rate. An 8-point human VISTA titration ([…]) was prepared in PBST at pH 7.4, 6.9, 6.45, and 6.0. Titrations were injected over the captured antibodies for 180 seconds at 30 µL/min. Sensorgrams were fit to a 1:1 binding model in T200 evaluation software and the kinetic constants were reported.
Each table reports the data at one of the four tested pHs (7.4, 6.9, 6.45, and 6.0, respectively). The 8-point hVISTA titration used in these assays was chosen to provide increased confidence in kinetic values reported at neutral pH conditions. A relatively stringent cutoff for non-binding was applied in this assay. Certain progeny of P1-061029 antibody (P1-068757, ‘759, ‘765, ‘771, and ‘775) show no binding to hVISTA at micromolar concentrations at pH 7.4, while ‘761 and ‘767 show no binding to hVISTA at 100 nM at pH 7.4 but do show binding to hVISTA at micromolar concentrations.

Residue numbers refer to the chain shown, from its start. Names may count otherwise.

T2 sequence (Q9H7M9 other isoform, or with tags, fused parts or gaps limits assumed): as above
T1 sequence (Q9H7M9 other isoform, or with tags, fused parts or gaps limits assumed): as above

B1: P1-077881 (P1-068748 D58Y D100S) (antibody, V domains shown)
VH: QVQLVESGGGVVQPGRSLRLSCAASGFTFSHHAMHWVRQAPGKGLEWVAIIWYDGSNDYYADSVKGRFTISRDNSKNTLYLQMNSLRAEDTAVYYCARDSGFYSSYYFDYWGQGTLVTVSS
VL: EIVLTQSPATLSLSPGERATLSCRASQSVSSSYLAWYQQKPGQAPRLLIYDASNRATGIPARFSGSGSGTDFTLTISSLEPEDFATYYCQQYNSYPYTFGQGTKLEIK
notes: Reversion mutant of P1-068748 (Kabat names); captured on a Protein A chip
Regarding B1, in assay [1], binding was characterised by a dissociation constant (Kd) of 53 nM, the koff is 0.0034 s⁻¹ and the kon is 62000 M⁻¹ s⁻¹. In assay [2], this molecule had a Kd of 22 nM, a koff of 0.0036 s⁻¹ and a kon of 160000 M⁻¹ s⁻¹.

B2: P1-077887 (P1-068748 H31S D100S) (antibody, V domains shown)
VH: B1 VH with H31S, Y59D
VL: B1 VL
notes: as for B1
Take B2: in assay [1], the Kd was 0.52 nM, the koff came out at 0.0011 s⁻¹ and the kon is 2.1e+06 M⁻¹ s⁻¹. In assay [2], this molecule gave a Kd of 3 nM, a koff of 0.0027 s⁻¹ and a kon of 910000 M⁻¹ s⁻¹.

B3: P1-077883 (P1-068748 H31S D57K) (antibody, V domains shown)
VH: B1 VH with H31S, D58K, Y59D, S104D
VL: B1 VL
notes: as for B1
In assay [1], B3 yielded a Kd of 6.7 nM, a koff of 0.002 s⁻¹ and a kon of 310000 M⁻¹ s⁻¹. In assay [2], this molecule returned a dissociation constant Kd of 510 nM, a koff of 0.035 s⁻¹ and a kon of 68000 M⁻¹ s⁻¹.

B4: P1-077889 (P1-068748 H32Y D58Y) (antibody, V domains shown)
VH: B1 VH with H32Y, S104D
VL: B1 VL
notes: as for B1
In assay [1], B4 displayed a Kd of 130 nM, a koff of 0.022 s⁻¹ and a kon of 180000 M⁻¹ s⁻¹. In assay [2], this molecule registered a Kd of 2400 nM, a koff of 0.073 s⁻¹ and a kon of 31000 M⁻¹ s⁻¹.

B5: P1-077891 (P1-068748 H32Y D100S) (antibody, V domains shown)
VH: B1 VH with H32Y, Y59D
VL: B1 VL
notes: as for B1
In assay [1], B5 gave a Kd of 0.36 nM, a koff of 0.00099 s⁻¹ and a kon of 2.7e+06 M⁻¹ s⁻¹. Further, in assay [2], binding was characterised by a dissociation constant (Kd) of 2.1 nM, the koff turned out to be 0.0025 s⁻¹ and the kon stood at 1.2e+06 M⁻¹ s⁻¹.

B6: P1-077893 (P1-068748 D57K D100S) (antibody, V domains shown)
VH: B1 VH with D58K, Y59D
VL: B1 VL
notes: Reversion mutant of P1-068748 (Kabat names); the antibody was captured on a Protein A chip, so an Fc was present
For B6, in assay [1], binding was put at a Kd of 0.43 nM, the koff was determined as 0.00058 s⁻¹ and the kon is 1.4e+06 M⁻¹ s⁻¹. In assay [2], this molecule had a Kd of 4.7 nM, a koff of 0.0019 s⁻¹ and a kon of 400000 M⁻¹ s⁻¹.

B7: P1-069063 (antibody, human IgG1, kappa, V domains shown)
VH: EVQLVESGGGLVQPGKSLRLSCAASGFTLEDYAMHWVRQAPGKGLEWVSGINWNSAEIGYADSVKGRFTISRDNAKNSLYLQMNSLRTEDTALYYCAKVPGYSGGWIDADDEWGQGTMVTVSS
VL: not shown
notes: IgG1.3
B7: in assay [3], the Kd was 2.4 nM, the koff came to 0.0044 s⁻¹ and the kon amounted to 1.9e+06 M⁻¹ s⁻¹. In assay [4], this molecule had a Kd of 230 nM, a koff of 0.027 s⁻¹ and a kon of 120000 M⁻¹ s⁻¹.

B8: P1-069067 (antibody, human IgG1, kappa, V domains shown)
VH: B7 VH with E30D, A56E
VL: not shown
notes: IgG1.3
In assay [3], B8 returned a Kd of 2.7 nM, a koff of 0.0045 s⁻¹ and a kon of 1.7e+06 M⁻¹ s⁻¹. In assay [4], this molecule showed a Kd of 290 nM, a koff of 0.027 s⁻¹ and a kon of 100000 M⁻¹ s⁻¹.

B9: P1-069065 (antibody, human IgG1, kappa, V domains shown)
VH: B7 VH with Y32E, A56D, E57D, D110F, E112V
VL: not shown
notes: IgG1.3
In assay [3], B9 came in with a Kd of 0.38 nM, a koff of 0.00022 s⁻¹ and a kon of 570000 M⁻¹ s⁻¹. In assay [4], the Kd was 39 nM, the off-rate (koff) stood at 0.0023 s⁻¹ and the kon was 59000 M⁻¹ s⁻¹.

B10: P1-069075 (antibody, human IgG1, kappa, V domains shown)
VH: B7 VH with N54D, G104H, D110E, E112V
VL: not shown
notes: IgG1.3
In assay [3], B10 had a Kd of 0.22 nM, a koff of 0.00029 s⁻¹ and a kon of 1.3e+06 M⁻¹ s⁻¹. In assay [4], this molecule registered a Kd of 18 nM, a koff of 0.0023 s⁻¹ and a kon of 130000 M⁻¹ s⁻¹.

B11: P1-068765 (antibody, human IgG1, kappa, V domains shown)
VH: B7 VH with L29D, A56E, D110E, E112D
VL: not shown
notes: also called P1-068765-10; 029 progeny
In assay [5], B11 registered a Kd of 29 nM, a koff of 0.0045 s⁻¹ and a kon of 150000 M⁻¹ s⁻¹. Also, in assay [6], the Kd was found to be 420 nM, the koff was 0.013 s⁻¹ and the kon turned out to be 31000 M⁻¹ s⁻¹. Also, the “7.4 KD/ 6.0 KD” value in assay [7] came to 14.2. For the same molecule, in assay [8], the “7.4 kd/ 6.0 kd” value came out at 2.8.

B12: P1-069077 (antibody, human IgG1, kappa, V domains shown)
VH: B7 VH with Y32E, A56D, D110F, E112V
VL: not shown
notes: IgG1.3
In assay [3], B12 gave a Kd of 0.19 nM, a koff of 0.00012 s⁻¹ and a kon of 630000 M⁻¹ s⁻¹. In addition, in assay [4], binding was characterised by a dissociation constant (Kd) of 31 nM, the koff is 0.0019 s⁻¹ and the kon came to 60000 M⁻¹ s⁻¹.

B13: P1-068771 (antibody, human IgG1, kappa, V domains shown)
VH: B7 VH with Y32E, A56H, D110E, E112D
VL: not shown
notes: also called P1-068771-10; 029 progeny
In assay [5], B13 displayed a Kd of 32 nM, a koff of 0.01 s⁻¹ and a kon of 320000 M⁻¹ s⁻¹. Further, in assay [6], binding was characterised by a dissociation constant (Kd) of 370 nM, the koff stood at 0.022 s⁻¹ and the kon is 61000 M⁻¹ s⁻¹. The “7.4 KD/ 6.0 KD” value in assay [7] was 11.6. Moreover, the “7.4 kd/ 6.0 kd” value in assay [8] was 2.2.

B14: P1-069069 (antibody, human IgG1, kappa, V domains shown)
VH: B7 VH with E30D, A56E, E112V
VL: not shown
notes: IgG1.3
With B14, in assay [3], binding was characterised by a dissociation constant (Kd) of 0.86 nM, the koff was found to be 0.0012 s⁻¹ and the kon is 1.4e+06 M⁻¹ s⁻¹. In addition, in assay [4], the affinity, expressed as Kd, was 84 nM; the koff amounted to 0.0075 s⁻¹; the association rate constant (kon) is 90000 M⁻¹ s⁻¹.

B15: P1-069071 (antibody, human IgG1, kappa, V domains shown)
VH: B7 VH with Y32E, E57D, G104E, D110F, E112V
VL: not shown
notes: IgG1.3
In assay [3], B15 returned a Kd of 0.73 nM, a koff of 0.00051 s⁻¹ and a kon of 700000 M⁻¹ s⁻¹. In assay [4], the Kd came to 93 nM, the koff was found to be 0.004 s⁻¹ and the kon amounted to 43000 M⁻¹ s⁻¹.

B16: P1-068757 (antibody, human IgG1, kappa, V domains shown)
VH: B7 VH with Y32E, A56E, D110E, E112D
VL: not shown
notes: also called P1-068757-9; 029 progeny
For the molecule B16, in assay [5], the Kd was determined as 24 nM, the koff came out at 0.01 s⁻¹ and the kon is 420000 M⁻¹ s⁻¹. In assay [6], this molecule registered a Kd of 140 nM, a dissociation rate constant (koff) of 0.018 s⁻¹ and a kon of 130000 M⁻¹ s⁻¹. For the same molecule, in assay [7], the “7.4 KD/ 6.0 KD” value came to 5.8. In assay [8], the “7.4 kd/ 6.0 kd” value stood at 1.7.

For the origin of these results see patent US20230192860A1 (Bristol-Myers Squibb, published 2023).
